Source: US20200071687

T1: RNase A, P61823
T1 chain: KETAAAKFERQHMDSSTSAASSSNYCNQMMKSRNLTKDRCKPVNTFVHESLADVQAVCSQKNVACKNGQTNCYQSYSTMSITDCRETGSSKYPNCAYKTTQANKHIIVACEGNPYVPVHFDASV


Tests used:
[1] = molecular target: T1, RNase A, P61823
[2] = molecular target: restriction enzyme Ase I
[3] = molecular target: catalase

| Protein | degradation of RNaseA, 1 hour at 37° C. (SDS-PAGE, Coomassie) [1] | digestion of Ase I, 1 hour at 37° C. (SDS-PAGE, Coomassie) [2] | digestion of the substrate protein in the presence of detergents (SDS-PAGE, Coomassie) [1] | digestion of the substrate protein in the presence of detergents (SDS-PAGE, Coomassie) [3] |
| --- | --- | --- | --- | --- |
| proteinase K (protein) AAQTNAPWGLARISSTSPGTSTYYYDESAGQGSCVYVIDTGIEASHPEFEGRAQMVKTYYYSSRDGNGHGTHCAGTVGSRTYGVAKKTQLFGVKVLDDNGSGQYSTIIAGMDFVASDKNNRNCPKGVVASLSLGGGYSSSVNSAAARLQSSGVMVAVAAGNNNADARNYSPASEPSVCTVGASDRYDRRSSFSNYGSVLDIFGPGTSILSTWIGGSTRSISGTSMATPHVAGLAAYLMTLGKTTAASACRYIADTANKGDLSNIPFGTVNLLAYNNYQA | both the subtilisin B24 variant and proteinase K can degrade RNaseA | while Proteinase K cannot |  |  |
| Subtilisin Carlsberg variant B24 (protein) AQTVPYGIPLIKADKVQAQGFKNVKVAVLDTGIQASHPDLNVVGGASFVAGEAYNTDGNGHGTHVAGTVAALGNTTGVLGVAPSVSLYAVKVLNSSGSGSYSGIVSGIEWATTNGMDVINMSLGGASGSTAMKQAVDNAYAKGVVVVAAGNSGSSGNTNTIGYPAKYDSVIAVGAVDSNSNRASFSSVGAELEVMAPGAGYSTYPTNTYATLNGTSMASPHVAGAAALIMSKHPNLSASQVRNRLSSTATYLGSSFYYGKGLINVEAAAPHHHHH | both the subtilisin B24 variant and proteinase K can degrade RNaseA | subtilisin B24 variant can digest Ase I in one hour at 37 °C | can digest catalase (FIG. 11A) and RNAase (FIG. 11B) up to at least a 2.0% SDS concentration; catalase (FIG. 11C) and RNAase (FIG. 11D) up to at least a 2.0% Triton X-100 concentration; and RNAase (FIG. 11E) up to at least a 2% CTAB concentration | can digest catalase (FIG. 11A) and RNAase (FIG. 11B) up to at least a 2.0% SDS concentration; catalase (FIG. 11C) and RNAase (FIG. 11D) up to at least a 2.0% Triton X-100 concentration |
